Test results published in article PMC3215728.

How the values were obtained:
[1] = target: CFP-dysferlin / YFP-dysferlin (full-length human dysferlin) expressed in HEK293 cells (human) (UniProt O75923); test: photon counting histogram (PCH); detergent solubilized YFP-dysferlin in CHAPS or DDM; molecular brightness normalised to monomeric YFP; details: remark: other sources report otherwise
[2] = target: CFP-dysferlin / YFP-dysferlin (full-length human dysferlin) expressed in HEK293 cells (human) (UniProt O75923); test: fluorescence correlation spectroscopy (FCS); YFP-dysferlin diffusing in detergent solution, 1% CHAPS or 0.5% DDM; single species diffusion model; details: remark: other sources report otherwise
[3] = target: CFP-dysferlin / YFP-dysferlin (full-length human dysferlin) expressed in HEK293 cells (human) (UniProt O75923); test: fluorescence correlation spectroscopy (FCS); YFP-dysferlin diffusing in detergent solution, Triton X-100; 2-species fit; details: remark: other sources report otherwise
[4] = target: CFP-dysferlin / YFP-dysferlin (full-length human dysferlin) expressed in HEK293 cells (human) (UniProt O75923); test: FRET or BRET; acceptor-selective photobleaching FRET between CFP- and YFP-tagged copies in living HEK293 cells; linearity of donor against acceptor for stoichiometry; hyperbolic fit of FRET against YFP intensity gives FRETmax and KD in arbitrary units; details: remark: other sources report otherwise
[5] = target: CFP-dysferlin / YFP-dysferlin (full-length human dysferlin) expressed in HEK293 cells (human) (UniProt O75923); test: FRET or BRET; three-cube fluorescence microscopy (E-FRET), pixel by pixel, CFP-dysferlin and YFP-dysferlin in living HEK293 cells; details: remark: other sources report otherwise
[6] = target: CFP-dysferlin / YFP-dysferlin (full-length human dysferlin) expressed in mouse FDB muscle fibers (human) (UniProt O75923); test: FRET or BRET; acceptor-selective photobleaching FRET between CFP-dysferlin and YFP-dysferlin in living FDB muscle fibers isolated from electroporated dysferlin-deficient mice; details: remark: other sources report otherwise
[7] = target: Endogenous dysferlin from rabbit skeletal muscle (rabbit (endogenous in skeletal muscle)); test: cross-linking; rabbit skeletal muscle microsomes with or without 100 µM o-PDM on ice for 30 min; SDS-PAGE and western blot
[8] = target: His6-tagged dysferlin (human) (UniProt O75923); test: SEC; Superose 6 HR 10/30 FPLC; mobile phase 1% CHAPS, 150 mM NaCl, 50 mM Tris pH 7.5, 0.4 ml/min; fractions blotted with Hamlet antibody; monomer to dimer; details: remark: other sources report otherwise

A stoichiometry N [1] of 2, a stoichiometry N [2] of 2 and a percent of molecules diffusing as the slower (dimer) species [3] of 17% were found for “CFP-dysferlin / YFP-dysferlin (full-length human dysferlin) expressed in HEK293 cells, O75923 1-2080” in this work. The FRETmax [4] was 26.8%, the stoichiometry N [4] was 2 and the FRET efficiency [5] was 20.6%.
An FRETmax [6] of 33.3% and a stoichiometry N [6] of 2 were found for “CFP-dysferlin / YFP-dysferlin (full-length human dysferlin) expressed in mouse FDB muscle fibers, O75923 1-2080” in this work.
A stoichiometry N [7] of 2 was found for “Endogenous dysferlin from rabbit skeletal muscle (natural protein)” in this work.
A stoichiometry N [8] of 2 was found for His6-tagged dysferlin, O75923 1-2080 in this work.
